The results in this text go back to patent publication US20250163138A1 (Alexion, published 2025).

The target in experiment [1] is T1, cynomolgus monkey (cyno) complement protein C5 (cynomolgus monkey, UniProt A0A2K5U1T1 19-1676).
T1 construct: also called cC5; cyno C5
In words: SPR (Biacore). For orientation: Surface plasmon resonance follows binding to a sensor surface in real time, without labels.

The target in experiment [2] is T2, human complement protein C5 (human, UniProt P01031 19-1676).
T2 construct: Native C5 is a two-chain protein made from one precursor; also called hC5; human C5
In words: SPR (Biacore).

Experiment [3] deals with T3, human serum albumin (human, UniProt P02768 25-609).
T3 construct: also called HSA; human albumin
Description: SPR (Biacore 3000), biotinylated albumin on CAP chip, pH 7.4.
Description: (§1) Biotinylated albumin was captured onto a CAP chip saturated with Biotin CAPture reagent containing deoxyribooligonucleotides (obtained from GE Healthcare). Concentrations of purified VHH domains were injected for 5 minutes at a flowrate of 50 μL/min. Three concentrations were assessed per VHH domain. Bound analyte was allowed to dissociate for 600 seconds. The chip surface was regenerated after each concentration by injecting 6 M guanidine HCl/0.25 M NaOH for 2 minutes at 10 μL/min. Kinetics were determined at pH 7.4 and pH 6.0 in HBS-EP buffer using a 1:1 Langmuir model (local Rₘₐₓ and constant RI) and double reference subtraction (subtraction of a buffer concentration cycle from the sample concentration cycle and subtraction of a parallel reference flow cell).

The target of experiment [4] is T4, Cynomolgus monkey serum albumin (cynomolgus monkey, UniProt A2V9Z4 25-608).
T4 construct: also called CSA; cynomolgus albumin
Described as above.
Description: as §1

Experiment [5] concerns the target T3, human serum albumin. Description: SPR (Biacore 3000), biotinylated albumin on CAP chip, pH 6.0.
Description: as §1
For experiment [6], the target named is T4, Cynomolgus monkey serum albumin. The experiment is described as above.
Description: as §1
For experiment [7], the target named is T1, cynomolgus monkey (cyno) complement …. In words: SPR (Biacore), pH 6.0.
Experiment [8] deals with T2, human complement protein C5. Description: SPR (Biacore), pH 6.0.
The target is the same in experiment [9]. Description: SPR (Biacore), pH 7.4.
Experiment [10] deals with T3, human serum albumin. Description: BLI (Octet HTX), VHH-His on Penta-His sensors, 100 nM albumin.
Description: VHH sequences were first analyzed by SDS-PAGE and Coomassie staining to determine approximate concentration relative to a known standard. Supernatant concentrations were then normalized and subjected to biolayer interferometry on an Octet HTX (Pall/ForteBio). Penta-His sensors were exposed to kinetics buffer for 60 seconds to establish baseline measurements. The sensors were then loaded with VHH-His containing supernatants for 300 seconds before a second baseline was established in kinetics buffer over 120 seconds. Tips were then incubated with 100 nM HSA or CSA in kinetics buffer for 600 seconds and dissociation measured over an additional 600 seconds.

B1: LCP0296 (VHH)
VHH: EVQLVESGGGVVQAGDSLTLTCTAPVGTISDYGMGWFRQAPGKEREFVASISWGGMWTDYADSVKGRFTISRDNDKNAVYLRMNSLNAEDTAVYYCGRGRMYRGIGNSLAQPKSYGYWGQGTQVTVSS
notes: llama anti-C5 VHH, tested as VHH-His fusion; not shown: His-tag
As usually defined, the Kd is the constant that tells how readily two partners part at equilibrium. By koff is commonly meant the first-order rate constant of dissociation. By kon is commonly meant the second-order rate constant of association. On to B1, for which, in experiment [1], the affinity, expressed as Kd, was 1.55 nM; the koff turned out to be 0.000106 s⁻¹; the kon worked out at 68400 M⁻¹ s⁻¹. In experiment [2], this molecule displayed a Kd of 0.417 nM, a koff of 3.9e-05 s⁻¹ and a kon of 93400 M⁻¹ s⁻¹.

B2: LCP0146 (VHH)
VHH: EVQLVESGGGLVQAGGSLRLSCAASGRAFSDYAMAWFRQAPGKEREFVAGIGWSGGDTLYADSVRGRFTNSKDNAKNRMSLQMNSLKPEDTAVYYCAARQGQYIYSSMRSDSYDYWGQGTQVTVSS
notes: as for B1
For B2, in experiment [1], the Kd worked out at 0.0922 nM, the koff was found to be 0.000244 s⁻¹ and the kon was 2.64e+06 M⁻¹ s⁻¹. For the same molecule, in [2], the Kd was 0.0435 nM, the koff amounted to 9.75e-05 s⁻¹ and the kon was determined as 2.24e+06 M⁻¹ s⁻¹.

B3: LCP0136 (VHH)
VHH: EVQLVESGGGLVQPGESLRLSCAISGFAFTDVGMSWVRQAPGKGLEWVSSISSGSSITTYSDSVKGRFTISRDNARNTLFLQMNSLKPEDTAVYYCGRYYCTGLGCHPRRDSALWGQGTQVTVSS
notes: as for B1
In [1], B3 gave a Kd of 0.318 nM, a koff of 0.000251 s⁻¹ and a kon of 789000 M⁻¹ s⁻¹. In experiment [2], this molecule displayed a dissociation constant Kd of 1.81 nM, a koff of 0.000882 s⁻¹ and a kon of 486000 M⁻¹ s⁻¹.

B4: HAS040 (VHH)
VHH: QVQLNESGGGMVQAGGSLRLSCAASGRTVSNYAAGWFRQAPGKEREFVAAINWNKTTTYADSVKGRFIISREYAKNTVALQMNSLKPEDTAVYYCAAVFRIVAPKTQYEYDYWGQGTQVTVSS
notes: anti-albumin VHH-His; also called HAS40
In the case of B4, the Kd with human serum albumin [3] came to 0.341 nM; in experiment [4] it was 0.539 nM; with human serum albumin [5], 0.466 nM; in experiment [6], 0.764 nM. Further, the koff with human serum albumin [3] was 0.00044 s⁻¹; in experiment [4], 0.000562 s⁻¹; with human serum albumin [5], 0.000208 s⁻¹; in experiment [6], 0.000281 s⁻¹. In addition, the kon in the experiment with human serum albumin [3] was 1.29e+06 M⁻¹ s⁻¹; in [4], 1.04e+06 M⁻¹ s⁻¹; with human serum albumin [5], 445000 M⁻¹ s⁻¹; in [6] it was 368000 M⁻¹ s⁻¹.

B5: CRL0499 (bispecific antibody)
chain: EVQLLESGGGLVQPGGSLRLSCAASGFTFRSFGMSWVRQAPGKGPEWVSSISGSGSDTLYADSVKGRFTISRDNSKNTLYLQMNSLRPEDTAVYYCTIGGSLSRSSQGTLVTVSSGGGGSGGGGSGGGGSEVQLVESGGGLVQPGGSLRLSCAASGRAHSDYAMAWFRQAPGQEREFVAGIGWSGGDTLYADSVRGRFTNSRDNSKNTLYLQMNSLRAEDTAVYYCAARQGQYIYSSMRSDSYDYWGQGTLVTVSS
notes: anti-albumin VHH / (G4S)3 / anti-C5 VHH fusion, purified by Protein A; also called CRL0499 (HSA/C5)
In experiment [7], B5 returned a dissociation constant (Kd) of 2.02 nM, a koff of 0.00388 s⁻¹ and a kon of 1.92e+06 M⁻¹ s⁻¹. In experiment [8], this molecule had a Kd of 0.448 nM, a koff of 0.00112 s⁻¹ and a kon of 2.51e+06 M⁻¹ s⁻¹. In [9], the Kd came to 0.15 nM, the koff amounted to 0.000332 s⁻¹ and the kon came to 2.22e+06 M⁻¹ s⁻¹.

B6: LCP0143 (VHH)
VHH: EVQLVESGGGLVQAGGSLRLSCAAPEMGATINVMAWYRQAPGKQRELVARLPLDNNIDYGDFAKGRFTISRDITRNTVYLQMNNLKPDDTAVYYCNVLLSRQINGAYVHWGQGTQVTVSS
notes: as for B1
In the case of B6, in experiment [1], binding was put at a Kd of 0.167 nM, the koff was determined as 0.000124 s⁻¹ and the kon turned out to be 741000 M⁻¹ s⁻¹. In [2], the Kd was found to be 0.082 nM, the koff was 5.66e-05 s⁻¹ and the kon was 691000 M⁻¹ s⁻¹.

B7: LCP0123 (VHH)
VHH: EVQLVESGGGLVQAGGSLTLSCAMSGGTRPFEDYVMAWFRQATGKEREFVATITWMGETTYYKDSVNGRFAISRDNAENTVALQMNSLEPEDTAVYFCAAHSRSSFSTSGGRYNPRPTEYDYWGQGTQVTVSS
notes: as for B1
For B7, in [1], the Kd was determined as 3.8 nM, the dissociation rate constant (koff) worked out at 0.000381 s⁻¹ and the kon was found to be 100000 M⁻¹ s⁻¹. Also, in experiment [2], the Kd came to 1.99 nM, the koff came to 0.000216 s⁻¹ and the on-rate (kon) worked out at 108000 M⁻¹ s⁻¹.

B8: HAS080 (VHH)
VHH: QVRLAESGGGRVQAGESLRLSCVASGRTFSNDAAGWFREASGKEREFVASISWSGNYTYYADSVKGRFTISEDNVKNTVYLQMTSLKPEDTAVYYCAAGNRYSDYRISLVTPRLYEYWGQGTQVTVSH
notes: anti-albumin VHH-His
With B8, the binding result with human serum albumin [10] is “binds”.

B9: HAS044 (VHH)
VHH: QVQLVESGGGLVQAGGSLRLSCAASGRTFSSYAIGWFRQAPGKAREFVARVSTIAGDTDYADSVKGRFTISRDNAKNTVYLQMNSLKPEDTAVYYCAADSYNVRLVTGEADYWGEGTQVTVSS
notes: anti-albumin VHH-His
Turning to B9, in the experiment with human serum albumin [10], the binding result was “binds”.

B10: HAS077 (VHH)
VHH: QVQLVESGGGLVQAGGSLRLSCAASGRTFSSYAIGWFRQAPGKAREFVARVSTIAGDTDYADSVKGRFTISRDNAKNTVYLQMNSLKPEDTAVYYCAADSYNVRLGTGEADYWGEGTQVTVSS
notes: anti-albumin VHH-His
For the molecule B10, in the experiment with human serum albumin [10], the binding result is “binds”.

B11: HAS079 (VHH)
VHH: EVQLVESGGGLVQAGDSLRLSCAASGFTFSNYAIGWFRQAPGKAREFVARVSTIAGDTDYANAVKGRFTISRDNAKNTVYLQMNSLKPDDTAVYYCAAESYNVRLVTGEADYWGEGTQVTVSS
notes: anti-albumin VHH-His
With B11, in the experiment with human serum albumin [10], the binding result is “binds”.

B12: LCP0095 (VHH)
VHH: EVQLVESGGGLVQAGGSLRLSCTASGRTISTTVMAWFRQAPGKEREFVAADHWGDAGTVYADSVKGRFTISRDNAKNTVYLQMNYLKPEDTSVYYCAARPPTYVGTSRDSRAYDYWGQGTQVTVSS
notes: as for B1
In experiment [1], B12 had a Kd of 3.69 nM, a koff of 0.00168 s⁻¹ and a kon of 456000 M⁻¹ s⁻¹. In experiment [2], this molecule gave a Kd of 2.5 nM, a koff of 0.000714 s⁻¹ and a kon of 286000 M⁻¹ s⁻¹.

B13: HAS038 (VHH)
VHH: QVQLVESGGGLVQPGGSLRLSCTGSGHSFSTYTVGWFRQAPGEERKFVASISWSGEVTLYGDSVKGRFTISRDNRKKTVYLQMHSLKPEDSAIYYCAAKRGGRPTDSSDDYFYWGQGTQVTVSS
notes: anti-albumin VHH-His
Regarding B13, the binding result with human serum albumin [10] is given as “binds”.

B14: LCP0115 (VHH)
VHH: EVQLVESGGGLVQAGGSLRLSCAASGRTFSGILSPYAVGWFRQAPGKGREFVSTITSGGSAIYTDSVKGRFTLSRDNAKDTVYLQMNSLKPEDTAVYYCAVRTRRYGSNLGEVPQENEYGYWGQGTQVTVSS
notes: as for B1
On to B14, for which, in experiment [1], the affinity, expressed as Kd, was 0.107 nM; the koff amounted to 1.02e-05 s⁻¹; the kon turned out to be 95300 M⁻¹ s⁻¹. In addition, in experiment [2], binding was put at a Kd of 0.309 nM, the koff came out at 3.48e-05 s⁻¹ and the kon came out at 113000 M⁻¹ s⁻¹.

B15: LCP0302 (VHH)
VHH: EVQLVESGGGLVQAGGSLRLSCAASGRTFSGILSAYAVGWFRQAPGKEREFVSTITSGGSTLSADSVKGRFTLSRDNAKDTVYLQMNSLKPEDTAVYYCAVRTWPYGSNRGEVPTENEYGHWGQGTQVTVSS
notes: as for B1
In experiment [1], B15 displayed a Kd of 0.232 nM, a koff of 2.38e-05 s⁻¹ and a kon of 103000 M⁻¹ s⁻¹. In experiment [2], this molecule yielded a Kd of 0.195 nM, a koff of 2.22e-05 s⁻¹ and a kon of 114000 M⁻¹ s⁻¹.

B16: HAS020 (VHH)
VHH: QVQLVESGGGLVQAGGSLRLSCAASGRTFGSDAAGWFRQASGKEREFVASISWSGGYTYYADSVKGRFTISSDNVKNTVYLQMNSLTPEDTAVYFCATGNRYSDYRISLVTPSQYEYWGQGTLVTVSH
notes: anti-albumin VHH-His
Regarding B16, the binding result with human serum albumin [10] is on record as “binds”.

B17: HAS093 (VHH)
VHH: QVQLVESGGGLVQAGGSLRLSCAASGRTFGSDAAGWFRQASGKEREFVASISWSGGYTYYADSGKGRFTISSDNVKNTVYLQMNSLTPEDTAVYFCATGNRYSDYRISLVTPSQYDYWGQGTQVTVSH
notes: anti-albumin VHH-His
For the molecule B17, the binding result with human serum albumin [10] is given as “binds”.

B18: HAS096 (VHH)
VHH: QVQLVESGGGLVQAGGSLRLSCAASGRTFGSDAAGWFRQASGKEREFVASISWSGGYTYYADSVKGRFTSSSDNVKNTVYLQMNSLTPEDTAVYFCATVNRYSDYRISLVTPSQYEYWGQGTQVTVSH
notes: anti-albumin VHH-His
Consider B18, for which, in the experiment with human serum albumin [10], the binding result is reported as “binds”.

B19: HAS091 (VHH)
VHH: QVQLVESGGGLVQAGGSLRLSCAASGRTFGSDAAGWFRQASGKEREFVASISWSGGYTYYADSGTGRFTISSDNVKNTVYLQMNSLTPEDTAVYFCATGNRDSDYRISLVTPSQYEYWGQGTQVTVSH
notes: anti-albumin VHH-His
Take B19: in the experiment with human serum albumin [10], the binding result is recorded as “binds”.

B20: HAS081 (VHH)
VHH: QVQLVESGGGLVQAGGSLRLSCAASGRTFSSDAAGWFRQASGKEREFVAAISWSGNYTYSADSVKGRFTISSDNVKNTVYLQMNSLKPEDTAVYLCAAGNRYSDYRISLVTPSQYEYWGQGTQVTVSH
notes: anti-albumin VHH-His
In the case of B20, the binding result with human serum albumin [10] is “binds”.
